According to the supplement of paper PMC9170038:

Tested on: K4 kissing-loop RNA reporter
Test: apparent KD of K4 kissing-loop reporter; higher = weaker reporter binding
Conditions: Eterna round: R107
Experimental: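 RNA-MaP round R107: designed RNA switches with theophylline, tryptophan, arginine or FMN aptamers are transcribed on-chip within common flanks. They are titrated with a labelled K4 kissing-loop RNA reporter in RNA-MaP buffer (100 mM Tris pH 7.5, 80 mM KCl, 4 mM MgCl2), without ligand or with the indicated ligand. Median apparent KD per design.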

[1] = input ligand: theophylline 20 uM
[2] = input ligand: tryptophan 2.4 mM
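Also: bound reporter read as fluorescence of individual clusters on recovered sequencing chips by microscopy, with normalized cluster intensities fitted with a binding model.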

Row | Sequence | apparent KD of K4 kissing-loop reporter (input ligand: FMN 200 uM) [nM] | apparent KD of K4 kissing-loop reporter (input ligand: arginine 13.2 mM) [nM] | apparent KD of K4 kissing-loop reporter (input ligand: none) [nM] | apparent KD of K4 kissing-loop reporter [1] [nM] | apparent KD of K4 kissing-loop reporter [2] [nM]
1 | UUAGCGACAAGUCAGAUUCUGACAAUUGAUACCAGAUAGAAUUCUAUCCCUUGGCAGCAGUGAUGUUGUUGCAAUAAGUCGCAUU [AK2 Exc Theophylline A] | 322 | 253 | 317 | 282 | 266
2 | GCGCGCGGCGGAGGAUAUAGCAGGUGAUCCGAGAAAGUGAGUGAUGUUUACGGAGAUGAUGAUAUGUUAGAAGGCCGCCGCGCGC [abcdefghijklmnopqrstuv] | 515 | 416 | 437 | 425 | 558
3 | AAUUCUCUUUUUGAUACCAGCGAAUCUGAGUGAUGUUCUAAGCCAUACAAUUGAGUAAAUCGCCCUUGGCAGCAAUUCGUGGGUG [theeternabot_exclusion_KL_Theo_B_20] | 898 | 681 | 724 | 921 | 567
4 | AAUAAAAUCACGGCCGCCACUGAAUUAUUGGUAAGUAGUGAUGUUACUUUACAUAUCUAAUUUAACAGGACCGGGUGAAUAUUUA [#17 K4 Tryptophan B Exclusion] | 130 | 93.4 | 113 | 96.6 | 131
5 | UUAGAGAUCUCAGGAUAUCAGUGAUGUUGGUAUCAAGAUCUGAGAUAGAAUUCUAUCUCAGAUCAAUGAGAAGGGAGAUCUCAUU [AK3.3 Exc FMN B] | 374 | 110 | 105 | 176 | 118
6 | UACCUAUUAUUAACACUAUAUACAACUGAAGGAGCGACAAUAAAGUCAGGUAGGUCGCAGAAUUAAUGAGUGAUGUUCAUUUUUA [JR_ExcArginiA_Sub014] | 84.3 | 136 | 95.3 | 110 | 59.7
7 | AGAGAGGUGUUUUUUUGAAGUGAGUAAUGGCGAGGACCGGUACGGCCGCCACUCGGGUGAUGUUAGUGAUGUUGAUGUAGUGAUG [yrymullin] | 79.3 | 60.8 | 66.3 | 114 | 65.6
8 | AGCAGGAGUGAUGUUCCUGUGGCAUAAGUUCGAGGACCGGUACGGCCGCCACUCGUAACAUUAAUCCGUCCUUGAUCAGAUAAGA [theeternabot_sameState_KL_Trp_A_12] | 195 | 186 | 216 | 243 | 101
9 | AUUUUUUUGUCAGGAUAUUAGUGUUGGUUUGGUUUGUUAGUGAUGUUGAUAUUUGUUUUAUGUAUUUAAGAAGGGAUUUAGCUGU [ppdemullin] | 391 | 359 | 346 | 427 | 278
10 | CGCCACGACUGAAGGAGCGCGCCAGUGAUGUUGGACGGCUUUGUCAAGGAAACUGCACCGGUGCAGGUAGGUCGCAGUUCGUGGU [Quisbiri] | 398 | 421 | 537 | 588 | 362
11 | AAACAUUGGUCGGAUACCAGUUAGACCGAUAAGGUCAAAACUGGAGUGAUGUUCCCAAAUAACCCUUGGCAGCCGACCGAUGAAA [MAT - Same State Theophlline B - Mod of Eli - D11] | 193 | 121 | 167 | 205 | 221
12 | UUUACUCCGAGUGAUGUUCGGCGUAUCUGACGAGGACCGGUACGGCCGCCACUCGGUUCGACUACGAAGGCCUUGGCCACAGAUU | 268 | 174 | 257 | 284 | 285
13 | GUAUCGCUAGGAGGAUAUUUCAAAUAAUAAAUAAAUGGAUAUUCGGAGUGAUGUUCCGAUUUACGGAAAGAAGGCCUAGUGAUAC [FMN B 2] | 135 | 143 | 157 | 137 | 150
14 | AGUGGAACUUGCAGGUAUCCACAACUGGAUACCAGCUCGGAAACGAGCCCUUGGCAGCCAGAUCUUGCAGUGAUGUUGCAAGUUC [Design10] | 392 | 323 | 392 | 412 | 381
15 | CAACAUCACAACUUCUUCGUCCUAGAAGACUAGGAUAUCAGGAAACUGAGAAGGAGUCUCUGCAGUGAUGUUGCAGCUAGGACGA [[K]'-[F2]'-[F1]'-[F1]-[F2]-[K1]-[K2]-[F]''_Design2b] | 231 | 216 | 185 | 266 | 219
16 | AAGCCAGUGAUGUUGGCAAAAUAAACUGAAGGAGCGCGUGAAAACGCAGGUAGGUCGCAGAACCUUGCCAACUAACACGAAAGUG [Ex Arginine A K4 19] | 268 | 246 | 305 | 387 | 287
17 | UCGCACCUGUGGGCGAGGCCUAUAAUUGUCAAGGAUAUAGAUCAUUCUAGAAGGUGACACUUCGCGAGUGAUGUUCGGGAAAUGC [theeternabot_sameState_KL_FMN_A_8] | 386 | 212 | 273 | 245 | 179
18 | ACGCGCGCGAGUGAUGUUCGGAGCGGCUGGCAGGAUAUGUAGCAAUGCAGAAGGGUCGUGGCUGCUGGUAGGAAACUACUGGCAG [#2 Exclusion - FMN A Attempt #4 (HarryS)] | 252 | 316 | 424 | 358 | 441
19 | GUAGAUAGGCUACAUCUCUAGUCUAUAGACUAGGAUAUCAGGAAACUGAGAAGGAGUCUCAUUGGAGUGAUGUUCCAAGAAUAAU [KL-SSFMN-A15] | 120 | 115 | 114 | 133 | 85.1
20 | UGUACCGAGUCAGGAUAUCAACGACUGACAAAGUCGGUCGAAUAUCCAGUGAUGUUGGAAAAUAAAUGAGAAGGGACUUGGUACU [FmnBS 12 #SwitchBubble #StaticStem] | 137 | 361 | 360 | 341 | 344
21 | GGGAGAAGUGGUGUUGAUUAAGAAGCGGAAGGAGCGCCGAAGAAGGCAGGUAGGUCGCCGAAAUAUAGUGAUGUUAUAUAAAGGG [ExArg.B] | 155 | 184 | 137 | 218 | 152
